Reference: publication PMC12318605

Legend:
Asp268 = Asp268 (UniProt position 268, QAVPVDVHMWH); experiment: kinetics; conditions: 15 °C; 100 mM NaCl; 50 mM citric acid-Na2HPO4; Single-turnover conditions: 10 µM hOGG1(K249H) with 5.0 µM oxoG-containing DNA duplex F-oG23/C23 (substrate-bound enzyme)
His249 = His249 (UniProt position 249, PGVGTHVADCI); experiment: NMR; conditions: 25 °C; 50 mM NaCl; 20 mM sodium phosphate (starting pH 6.8; pH adjusted with HCl or NaOH); 0.1 mM 13C-labelled hOGG1(K249H); no DNA is mentioned in the sample (apparently free enzyme)

## 8-oxoguanine DNA glycosylase 1 (hOGG1), K249H mutant (Homo sapiens; K249H)
Asp268
  pKa: 4.5 ± 0.39
His249
  pKa: 5.54 ± 0.05
